What all share (assay): cryo-EM structure
One experiment addresses T1, RPC5 (from HeLa) (human (endogenous in HeLa), UniProt Q9NVU0 1-708).
T1 sequence: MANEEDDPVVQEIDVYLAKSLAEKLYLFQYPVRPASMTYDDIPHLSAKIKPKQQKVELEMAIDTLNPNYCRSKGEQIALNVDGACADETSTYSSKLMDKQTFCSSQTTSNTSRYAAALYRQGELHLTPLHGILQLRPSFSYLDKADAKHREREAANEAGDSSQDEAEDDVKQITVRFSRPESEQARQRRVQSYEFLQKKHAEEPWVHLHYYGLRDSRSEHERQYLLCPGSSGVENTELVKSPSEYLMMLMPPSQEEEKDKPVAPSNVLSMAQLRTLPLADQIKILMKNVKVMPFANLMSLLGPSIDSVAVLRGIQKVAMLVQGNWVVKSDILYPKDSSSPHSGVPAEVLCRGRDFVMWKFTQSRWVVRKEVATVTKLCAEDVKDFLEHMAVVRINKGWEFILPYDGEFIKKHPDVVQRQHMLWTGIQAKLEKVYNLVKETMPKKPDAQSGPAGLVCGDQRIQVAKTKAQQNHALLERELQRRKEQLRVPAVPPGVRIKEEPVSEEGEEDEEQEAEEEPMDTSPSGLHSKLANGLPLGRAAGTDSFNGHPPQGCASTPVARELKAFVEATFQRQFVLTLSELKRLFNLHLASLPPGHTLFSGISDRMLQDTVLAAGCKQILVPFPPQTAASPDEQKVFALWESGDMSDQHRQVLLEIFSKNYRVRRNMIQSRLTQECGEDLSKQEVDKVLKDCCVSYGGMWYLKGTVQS

A further experiment concerns the target T2, RPC8 (human (endogenous in HeLa), UniProt Q9Y535 1-204).
T2 sequence: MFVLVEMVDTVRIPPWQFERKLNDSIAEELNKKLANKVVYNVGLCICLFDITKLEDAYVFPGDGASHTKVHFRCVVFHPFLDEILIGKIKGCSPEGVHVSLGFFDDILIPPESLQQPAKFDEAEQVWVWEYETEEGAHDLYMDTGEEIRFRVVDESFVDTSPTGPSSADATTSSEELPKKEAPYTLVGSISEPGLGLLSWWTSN

The target in the next experiment is RPABC1 (human (endogenous in HeLa), UniProt P19388 1-210).

The text below walks through data of paper doi:10.1101/2020.06.29.177279 (bioRxiv, 2020).

B1: RPC4 (from HeLa) (natural protein)
chain: MSEGNAAGEPSTPGGPRPLLTGARGLIGRRPAPPLTPGRLPSIRSRDLTLGGVKKKTFTPNIISRKIKEEPKEEVTVKKEKRERDRDRQREGHGRGRGRPEVIQSHSIFEQGPAEMMKKKGNWDKTVDVSDMGPSHIINIKKEKRETDEETKQILRMLEKDDFLDDPGLRNDTRNMPVQLPLAHSGWLFKEENDEPDVKPWLAGPKEEDMEVDIPAVKVKEEPRDEEEEAKMKAPPKAARKTPGLPKDVSVAELLRELSLTKEEELLFLQLPDTLPGQPPTQDIKPIKTEVQGEDGQVVLIKQEKDREAKLAENACTLADLTEGQVGKLLIRKSGRVQLLLGKVTLDVTMGTACSFLQELVSVGLGDSRTGEMTVLGHVKHKLVCSPDFESLLDHKHR
Turning to B1, in the experiment with RPC5 (from HeLa), the binding result is “binds”.

B2: RPC9 (natural protein)
chain: not shown
For B2, the binding result with RPC8 is given as “binds”.

B3: RPC1, largest subunit of human Pol III (from HeLa) (natural protein)
chain: MVKEQFRETDVAKKISHICFGMKSPEEMRQQAHIQVVSKNLYSQDNQHAPLLYGVLDHRMGTSEKDRPCETCGKNLADCLGHYGYIDLELPCFHVGYFRAVIGILQMICKTCCHIMLSQEEKKQFLDYLKRPGLTYLQKRGLKKKISDKCRKKNICHHCGAFNGTVKKCGLLKIIHEKYKTNKKVVDPIVSNFLQSFETAIEHNKEVEPLLGRAQENLNPLVVLNLFKRIPAEDVPLLLMNPEAGKPSDLILTRLLVPPLCIRPSVVSDLKSGTNEDDLTMKLTEIIFLNDVIKKHRISGAKTQMIMEDWDFLQLQCALYINSELSGIPLNMAPKKWTRGFVQRLKGKQGRFRGNLSGKRVDFSGRTVISPDPNLRIDEVAVPVHVAKILTFPEKVNKANINFLRKLVQNGPEVHPGANFIQQRHTQMKRFLKYGNREKMAQELKYGDIVERHLIDGDVVLFNRQPSLHKLSIMAHLARVKPHRTFRFNECVCTPYNADFDGDEMNLHLPQTEEAKAEALVLMGTKANLVTPRNGEPLIAAIQDFLTGAYLLTLKDTFFDRAKACQIIASILVGKDEKIKVRLPPPTILKPVTLWTGKQIFSVILRPSDDNPVRANLRTKGKQYCGKGEDLCANDSYVTIQNSELMSGSMDKGTLGSGSKNNIFYILLRDWGQNEAADAMSRLARLAPVYLSNRGFSIGIGDVTPGQGLLKAKYELLNAGYKKCDEYIEALNTGKLQQQPGCTAEETLEALILKELSVIRDHAGSACLRELDKSNSPLTMALCGSKGSFINISQMIACVGQQAISGSRVPDGFENRSLPHFEKHSKLPAAKGFVANSFYSGLTPTEFFFHTMAGREGLVDTAVKTAETGYMQRRLVKSLEDLCSQYDLTVRSSTGDIIQFIYGGDGLDPAAMEGKDEPLEFKRVLDNIKAVFPCPSEPALSKNELILTTESIMKKSEFLCCQDSFLQEIKKFIKGVSEKIKKTRDKYGINDNGTTEPRVLYQLDRITPTQVEKFLETCRDKYMRAQMEPGSAVGALCAQSIGEPGTQMTLKTFHFAGVASMNITLGVPRIKEIINASKAISTPIITAQLDKDDDADYARLVKGRIEKTLLGEISEYIEEVFLPDDCFILVKLSLERIRLLRLEVNAETVRYSICTSKLRVKPGDVAVHGEAVVCVTPRENSKSSMYYVLQFLKEDLPKVVVQGIPEVSRAVIHIDEQSGKEKYKLLVEGDNLRAVMATHGVKGTRTTSNNTYEVEKTLGIEAARTTIINEIQYTMVNHGMSIDRRHVMLLSDLMTYKGEVLGITRFGLAKMKESVLMLASFEKTADHLFDAAYFGQKDSVCGVSECIIMGIPMNIGTGLFKLLHKADRDPNPPKRPLIFDTNEFHIPLVT
As to B3, the binding result with RPABC1 was “binds”.
